Kd data for one substance are collected here from article PMC12767058.

This experiment deals with K-TM protein used for the affinity measurement with hFL (human). Kind of experiment: BLI; method not given; BLI is the only affinity method that the paper describes (Octet R8, SA chip, PBST); who was immobilised is not said. (Biolayer interferometry detects binding as a change in optical thickness at a sensor tip.)

One may read the Kd as the equilibrium constant for the complex coming apart. Substance “hFL lectin (mannose-binding lectin, human recombinant protein)” had an equilibrium dissociation constant (Kd) of 49.5 nM.
